Experimental data as given in article PMC3100292 (PLoS ONE, 2011).

Legend:
[1] = target: PDlim2 fused with the GAL4 DNA-binding domain (pBind-PDlim2) (human) (UniProt Q96JY6); experiment: two-hybrid
YC-PDlim2 (human) = YC-PDlim2 (human) (UniProt Q96JY6); experiment: split reporter (BiFC, NanoBiT)
[2] = target: T1, PDlim2 PDZ domain (residues 1-83) (human, UniProt Q96JY6 1-83); experiment: crystal structure; conditions: both partners purified
T1 construct: also called PDZ region (1-83) of PDlim2
T1 sequence (looked up): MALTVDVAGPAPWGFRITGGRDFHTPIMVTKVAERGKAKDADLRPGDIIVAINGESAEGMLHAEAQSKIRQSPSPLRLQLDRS

Work on “HN12-NS1 fused with the VP16 transcription activation domain (pACT-NS1) (natural protein)” yielded a relative luciferase activity (firefly/Renilla) [1] of 160 RLU.

YN-HN12-NS1 wt (natural protein) was tested, and the mean fluorescence intensity (MFI) (YC-PDlim2 (human)) was 1120 and the percent of cells in the high fluorescence zone (YC-PDlim2 (human)) was 10.9%.

TIESEV [C-terminal hexapeptide of HN12-NS1 (TIESEV)]: binds [2].
